Experimental data as given in the supplement of paper PMC9112550, “Optimization of the antimicrobial peptide Bac7 by deep mutational scanning” (BMC Biology, 2022).

Test system: Escherichia coli TOP10
Experiment: shrunken log2 fold change of peptide-encoding DNA abundance (4.5 h post-induction vs induction); higher = less antimicrobial activity (less host growth inhibition)
Details: time post-induction: 4.5 h; library: site-saturation at positions 5, 18, 19, 20
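Also: peptides expressed intracellularly from a pBAD plasmid library in pooled LB shake-flask culture, induced with 0.3% L-arabinose, DNA abundance read by NGS, three biological replicates, DESeq2 with apeglm shrinkage.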

Sequence | shrunken log2 fold change
RRIRDRPPRLPRPRPRPRTWPRP | 0.0224
RRIRIRPPRLPRPRPRPPPRPRP | 0.929
RRIRDRPPRLPRPRPRPGGNPRP | -0.0716
RRIRPRPPRLPRPRPRPHANPRP | -0.0736
RRIRWRPPRLPRPRPRPIAEPRP | 0.00894
RRIRMRPPRLPRPRPRPEWHPRP | 0.161
RRIRSRPPRLPRPRPRPCRLPRP | -0.271
RRIRLRPPRLPRPRPRPVNQPRP | -0.138
RRIRFRPPRLPRPRPRPPYMPRP | -0.43
RRIRHRPPRLPRPRPRPFIMPRP | -0.505
RRIRERPPRLPRPRPRPHLDPRP | 0.000475
RRIRWRPPRLPRPRPRPIDTPRP | 0.00736
RRIRQRPPRLPRPRPRPDYHPRP | -0.269
RRIRMRPPRLPRPRPRPKLAPRP | 2.87
RRIRYRPPRLPRPRPRPAHDPRP | -1.14
RRIRLRPPRLPRPRPRPVPPPRP | 0.245
RRIRTRPPRLPRPRPRPKMIPRP | 0.013
RRIRIRPPRLPRPRPRPDYFPRP | 0.197
RRIRARPPRLPRPRPRPWTTPRP | 0.0452
RRIRHRPPRLPRPRPRPQFLPRP | -0.653
RRIRERPPRLPRPRPRPGIQPRP | -0.398
RRIRCRPPRLPRPRPRPYTPPRP | -1.23
RRIRFRPPRLPRPRPRPFMMPRP | -0.693
RRIRKRPPRLPRPRPRPYECPRP | -0.341
RRIRWRPPRLPRPRPRPHRHPRP | -0.131

Sequence | shrunken log2 fold change
RRIRPRPPRLPRPRPRPDYDPRP | -0.252
RRIRGRPPRLPRPRPRPCPKPRP | 0.193
RRIRIRPPRLPRPRPRPVRMPRP | 0.109
RRIRTRPPRLPRPRPRPRVFPRP | 0.212
RRIRFRPPRLPRPRPRPGRCPRP | 0.259
RRIRVRPPRLPRPRPRPCTSPRP | -0.145
RRIRARPPRLPRPRPRPMHEPRP | 0.671
RRIRPRPPRLPRPRPRPIDFPRP | -0.125
RRIRVRPPRLPRPRPRPKFSPRP | 0.0178
RRIRVRPPRLPRPRPRPKNTPRP | -0.347
RRIRVRPPRLPRPRPRPIHEPRP | 0.0255
RRIRMRPPRLPRPRPRPNECPRP | 0.175
RRIRGRPPRLPRPRPRPHMWPRP | -0.0527
RRIRWRPPRLPRPRPRPFEPPRP | 1.2
RRIRSRPPRLPRPRPRPENQPRP | -0.0853
RRIRERPPRLPRPRPRPWCFPRP | -0.161
RRIRWRPPRLPRPRPRPPETPRP | 0.166
RRIRIRPPRLPRPRPRPIEYPRP | -0.0602
RRIRPRPPRLPRPRPRPCMTPRP | -0.106
RRIRWRPPRLPRPRPRPWKIPRP | -0.0733
RRIRTRPPRLPRPRPRPWHHPRP | 0.0255
RRIRLRPPRLPRPRPRPRNDPRP | -0.142
RRIRNRPPRLPRPRPRPLHHPRP | -0.39
RRIRKRPPRLPRPRPRPANCPRP | 0.0966
RRIRGRPPRLPRPRPRPHITPRP | -0.0465

Sequence | shrunken log2 fold change
RRIRHRPPRLPRPRPRPVHMPRP | -0.0408
RRIRLRPPRLPRPRPRPRMMPRP | 0.189
RRIRRRPPRLPRPRPRPPMKPRP | 0.522
RRIRGRPPRLPRPRPRPIIIPRP | -0.167
RRIRVRPPRLPRPRPRPWWRPRP | 1.25
RRIRERPPRLPRPRPRPMMCPRP | -0.0137
RRIRYRPPRLPRPRPRPQSLPRP | -0.0376
RRIRVRPPRLPRPRPRPHYRPRP | -0.0502
RRIRKRPPRLPRPRPRPKIQPRP | 0.113
RRIRSRPPRLPRPRPRPMIYPRP | -0.257
RRIRHRPPRLPRPRPRPFMHPRP | -0.377
RRIRKRPPRLPRPRPRPDFDPRP | -0.183
RRIRMRPPRLPRPRPRPPCRPRP | 0.584
RRIRMRPPRLPRPRPRPFFTPRP | -0.054
RRIRARPPRLPRPRPRPRHAPRP | 0.612
RRIRYRPPRLPRPRPRPFPWPRP | -0.18
RRIRVRPPRLPRPRPRPTTNPRP | 0.0416
RRIRYRPPRLPRPRPRPISSPRP | -0.262
RRIRGRPPRLPRPRPRPDHCPRP | 0.0254
RRIRRRPPRLPRPRPRPEMRPRP | 0.0735
RRIRIRPPRLPRPRPRPWYNPRP | -0.343
RRIRMRPPRLPRPRPRPTQMPRP | 0.195
RRIRVRPPRLPRPRPRPAEKPRP | 0.00294
RRIRFRPPRLPRPRPRPTFEPRP | -0.00113
RRIRDRPPRLPRPRPRPDKIPRP | 0.231

Sequence | shrunken log2 fold change
RRIRLRPPRLPRPRPRPYGLPRP | -0.0893
RRIRLRPPRLPRPRPRPKWCPRP | 0.0847
RRIRCRPPRLPRPRPRPEMKPRP | 0.0473
RRIRWRPPRLPRPRPRPDGVPRP | -0.1
RRIRPRPPRLPRPRPRPMSAPRP | 0.0743
RRIRVRPPRLPRPRPRPSWNPRP | -0.371
RRIRKRPPRLPRPRPRPHDWPRP | 0.31
RRIRDRPPRLPRPRPRPLSLPRP | 0.0554
RRIRRRPPRLPRPRPRPATRPRP | 0.226
RRIRTRPPRLPRPRPRPRGTPRP | 0.197
RRIRKRPPRLPRPRPRPDPNPRP | 0.0802
RRIRKRPPRLPRPRPRPTFKPRP | 0.0344
RRIRMRPPRLPRPRPRPEHWPRP | -0.00593
RRIRHRPPRLPRPRPRPGACPRP | 0.203
RRIRGRPPRLPRPRPRPWDEPRP | 0.0077
RRIRLRPPRLPRPRPRPLMMPRP | -0.164
RRIRPRPPRLPRPRPRPKIWPRP | 0.407
RRIRKRPPRLPRPRPRPVVHPRP | 0.122
RRIRNRPPRLPRPRPRPDFHPRP | -0.441
RRIRWRPPRLPRPRPRPVCGPRP | 0.649
RRIRDRPPRLPRPRPRPDSIPRP | 0.0726
RRIRFRPPRLPRPRPRPPYYPRP | -0.464
RRIRHRPPRLPRPRPRPISPPRP | -0.256
RRIRSRPPRLPRPRPRPGTVPRP | -0.0347
RRIRIRPPRLPRPRPRPGVHPRP | 0.241

Sequence | shrunken log2 fold change
RRIRERPPRLPRPRPRPHSRPRP | -0.0374
RRIRWRPPRLPRPRPRPKKYPRP | -0.245
RRIRRRPPRLPRPRPRPYVGPRP | -0.00208
RRIRIRPPRLPRPRPRPPDIPRP | -0.198
RRIRGRPPRLPRPRPRPTGSPRP | 0.864
RRIRDRPPRLPRPRPRPESPPRP | 0.000713
RRIRKRPPRLPRPRPRPIYMPRP | -0.0645
RRIRFRPPRLPRPRPRPREPPRP | 0.208
RRIRTRPPRLPRPRPRPHTVPRP | -0.244
RRIRIRPPRLPRPRPRPPMRPRP | 0.591
RRIRSRPPRLPRPRPRPPGCPRP | 0.676
RRIRARPPRLPRPRPRPAVHPRP | 0.175
RRIRCRPPRLPRPRPRPDGGPRP | 0.196
RRIRERPPRLPRPRPRPQSFPRP | -0.0705
RRIRCRPPRLPRPRPRPTMMPRP | -0.0339
RRIRPRPPRLPRPRPRPPNEPRP | -0.0989
RRIRWRPPRLPRPRPRPHKLPRP | -0.135
RRIRVRPPRLPRPRPRPWQLPRP | -0.421
RRIRPRPPRLPRPRPRPPPPPRP | 0.85
RRIRYRPPRLPRPRPRPRWWPRP | 0.189
RRIRDRPPRLPRPRPRPMCIPRP | -0.121
RRIRYRPPRLPRPRPRPMVEPRP | -0.201
RRIRSRPPRLPRPRPRPKIEPRP | -0.0199
RRIRNRPPRLPRPRPRPGFAPRP | 0.444
RRIRLRPPRLPRPRPRPEMKPRP | -0.169

Sequence | shrunken log2 fold change
RRIRCRPPRLPRPRPRPKNHPRP | -0.461
RRIRDRPPRLPRPRPRPFVSPRP | 0.00609
RRIRWRPPRLPRPRPRPLWMPRP | 0.151
RRIRTRPPRLPRPRPRPLDFPRP | -0.19
RRIRKRPPRLPRPRPRPQLNPRP | 0.0489
RRIRNRPPRLPRPRPRPMHMPRP | -0.00926
RRIRVRPPRLPRPRPRPKHHPRP | -0.357
RRIRRRPPRLPRPRPRPADQPRP | 0.0865
RRIRGRPPRLPRPRPRPYEEPRP | 0.106
RRIRNRPPRLPRPRPRPVSAPRP | 0.219
RRIRQRPPRLPRPRPRPSAAPRP | 0.486
RRIRSRPPRLPRPRPRPTAAPRP | 1.03
RRIRSRPPRLPRPRPRPVWFPRP | -0.121
RRIRGRPPRLPRPRPRPPQMPRP | 1.77
RRIRPRPPRLPRPRPRPMLQPRP | -0.105
RRIRYRPPRLPRPRPRPFTCPRP | -0.103
RRIRWRPPRLPRPRPRPTWEPRP | 0.314
RRIRNRPPRLPRPRPRPYSYPRP | 0.000362
RRIRLRPPRLPRPRPRPVDFPRP | 0.0727
RRIRQRPPRLPRPRPRPRTLPRP | 0.0409
RRIRDRPPRLPRPRPRPMPAPRP | 0.354
RRIRDRPPRLPRPRPRPRRCPRP | 0.142
RRIRQRPPRLPRPRPRPQHLPRP | -0.0402
RRIRYRPPRLPRPRPRPADEPRP | -0.451
RRIRVRPPRLPRPRPRPNEVPRP | 0.00656
